Assay results published in PMC7110113, “Termination of non‐coding transcription in yeast relies on both an RNA Pol II CTD interaction domain and a CTD‐mimicking region in Sen1” (The EMBO Journal, 2020).
Ends that are not written are not given here. FAM = 5,6-carboxyfluorescein

Experiments:
Assay in all cases: fluorescence polarisation; fluorescence anisotropy, equilibrium binding of Nrd1 CID variants to FAM-labelled NIM peptides; 10°C, 50 mM Na2HPO4, 100 mM NaCl, pH 8; 1:1 model with non-specific binding (DynaFit)
Conditions in all cases: both partners purified
[1] = target: T1, Nrd1 CID R133D (S. cerevisiae, UniProt P53617 1-153, R133D)
T1 construct: the construct for anisotropy is made as described previously (Kubicek et al, 2012); also called CID(R133D)-His6; source: recombinant, produced and purified as described previously (Kubicek et al, 2012); plasmid made with QuikChange, T7 promoter
T1 sequence (looked up): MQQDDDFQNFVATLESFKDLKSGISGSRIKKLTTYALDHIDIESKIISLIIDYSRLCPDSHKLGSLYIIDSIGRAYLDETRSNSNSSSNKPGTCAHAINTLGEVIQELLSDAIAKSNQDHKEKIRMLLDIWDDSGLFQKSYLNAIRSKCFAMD

[2] = target: T2, Nrd1 CID K21D (S. cerevisiae, UniProt P53617 1-153, K21D)
T2 construct: the construct for anisotropy is made as described previously (Kubicek et al, 2012); also called CID(K21D)-His6; source: recombinant, produced and purified as described previously (Kubicek et al, 2012); plasmid with T7 promoter
T2 sequence (looked up): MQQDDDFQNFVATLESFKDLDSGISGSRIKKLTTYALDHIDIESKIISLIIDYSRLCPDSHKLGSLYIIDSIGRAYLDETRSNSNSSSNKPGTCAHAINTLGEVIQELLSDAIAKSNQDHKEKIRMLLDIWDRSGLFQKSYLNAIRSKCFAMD

[3] = target: T3, Nrd1 CID I130A (S. cerevisiae, UniProt P53617 1-153, I130A)
T3 construct: the construct for anisotropy is made as described previously (Kubicek et al, 2012); also called CID(I130A)-His6; source: recombinant, produced and purified as described previously (Kubicek et al, 2012); plasmid with T7 promoter
T3 sequence (looked up): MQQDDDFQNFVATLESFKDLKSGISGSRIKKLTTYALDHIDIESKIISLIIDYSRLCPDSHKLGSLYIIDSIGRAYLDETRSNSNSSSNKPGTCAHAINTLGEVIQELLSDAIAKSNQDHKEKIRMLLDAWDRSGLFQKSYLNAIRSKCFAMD

Kd [1]: 2 ± 0.1 µM | Kd [2]: 8 ± 0.8 µM | Kd [3]: 7.6 ± 0.3 µM
B1: Sen1 NIM peptide (Sen1 aa 2,052-2,063) (peptide, UniProt Q00416 2052-2063, looked up)
peptide: {FAM}-DDDEDDYTPSIS
notes: Sen1, S. cerevisiae, fragment harbouring aa 2,052-2,063; source: synthetic peptide
